What was measured:
Details in all cases: protein: recombinant; tags: AGH N-terminal after intein cleavage
[1] = target: Cyp33-RK (RRM) (human, UniProt Q9UNP9 1-114, R86A;K88A); assay: NMR titration; NMR titrations: 20 mM KHPO4 pH 7, 40 mM KCl, 1 mM DTT, 289.15 K as printed (table S2 says 298.15 K for Kd); structures of complexes: 40 mM KCl, 20 mM KH2PO4 pH
[2] = target: Cyp33-K (RRM) (human, UniProt Q9UNP9 1-114, K83A); assay: as above
[3] = target: T1, Cyp33 RRM (human, UniProt Q9UNP9 1-114); assay: as above
[4] = target: T1, Cyp33 RRM; assay: NMR structure and titration; low affinity, multiple registers; NMR titrations: 20 mM KHPO4 pH 7, 40 mM KCl, 1 mM DTT, 289.15 K as printed (table S2 says 298.15 K for Kd); structures of complexes: 40 mM KCl, 20 mM KH2PO4 pH
[5] = target: Cyp33 RRMΔα (human, UniProt Q9UNP9 1-90); assay: NMR structure and titration; single register, larger shifts than with a3; NMR titrations: 20 mM KHPO4 pH 7, 40 mM KCl, 1 mM DTT, 289.15 K as printed (table S2 says 298.15 K for Kd); structures of complexes: 40 mM KCl, 20 mM KH2PO4 pH
[6] = target: T1, Cyp33 RRM; assay: NMR titration; weak, fast exchange; NMR titrations: 20 mM KHPO4 pH 7, 40 mM KCl, 1 mM DTT, 289.15 K as printed (table S2 says 298.15 K for Kd); structures of complexes: 40 mM KCl, 20 mM KH2PO4 pH

T1 sequence (Q9UNP9 1-114): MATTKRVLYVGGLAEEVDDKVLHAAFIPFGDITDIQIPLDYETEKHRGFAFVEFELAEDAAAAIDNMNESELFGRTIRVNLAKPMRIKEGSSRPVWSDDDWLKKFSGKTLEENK
Cyp33-RK (RRM), sequence (Q9UNP9 1-114 R86A/K88A): as the sequence (Q9UNP9 1-114) above, with R86A, K88A counted along it
Cyp33 RRMΔα, sequence (Q9UNP9 1-90, stated change not applied): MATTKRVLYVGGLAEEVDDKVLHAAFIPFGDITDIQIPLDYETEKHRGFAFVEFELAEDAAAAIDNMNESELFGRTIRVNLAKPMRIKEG
Cyp33-K (RRM), sequence (Q9UNP9 1-114 K83A): as the sequence (Q9UNP9 1-114) above, with K83A counted along it

Work on UAAUGU (ssRNA) [UAAUGU RNA] yielded a Kd [1] of about 2000 µM, a Kd [2] of about 1800 µM and a Kd [3] of about 300 µM.

AAUAAA (ssRNA) [AAUAAA RNA (poly-A signal)]: binds [4].

UAAUGUCG (ssRNA) [UAAUGUCG RNA]: binds [5]; binds [6].
